Paper doi:10.1101/335232 (bioRxiv, 2018)

Molecular target: the molecule itself
Test: SEC-MALS

B1: Human apolipoprotein-D (apoD) from breast cyst fluid (natural protein, UniProt P05090 21-189, looked up)
chain: QAFHLGKCPNPPVQENFDVNKYLGRWYEIEKIPTTFENGRCIQANYSLMENGKIKVLNQELRADGTVNQIEGEATPVNLTEPAKLEVKFSWFMPSAPYWILATDYENYALVYSCTCIIQLFHVDFAWILARNPNLPPETVDSLKNILTSNNIDVKKMTVTDQVNCPKLS
modifications: N-linked glycosylation at N45 and N78 (mature numbering)
- stoichiometry N: 4
